Reference: the supplement of paper PMC10126150
± gives the standard deviation of the averaged measurements.

System: ATP
Assay: switch fluorescence ratio, 500 uM ATP over buffer (Cy3 cluster intensity, sum of 5 cycles each) (fold (ratio)); higher = stronger signal-on switching upon ATP binding; sequences stand for … in TCGTCGGCAGCGTCAGATGTGTATAAGAGACAGTTTTTTTTTTTTTTTTTTTTTTTTT…TC
Settings: aptamer strand: ATP DNA aptamer (quencher-CACCTGGGGGAGTATTGCGGAGGAAGG + anchor), 100 nM annealed; ATP concentration: 500 uM
In short: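 For every switch-domain sequence, the fluorescence ratio is the mean of per-cluster values, each being summed target-cycle Cy3 intensity over summed buffer-cycle Cy3 intensity. Clusters outside 100-1000 RFU were excluded. On a modified Illumina MiSeq flow-cell, the Cy3-labelled switching-strand clusters were annealed to 100 nM quencher-labelled ATP aptamer, imaged in selection buffer and then after 15 min with 500 uM ATP at 22 °C. Five such cycles were run, with NaOH stripping and re-annealing between them.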
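Also: ATP exposure 15 min at 22 °C before imaging.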

GCGAAAAGAT
switch fluorescence ratio: 0.982 ± 0.018

CTTGATACTC
switch fluorescence ratio: 1.18 ± 0.032

GTTTGATAAA
switch fluorescence ratio: 0.981 ± 0.034

AGACAAAGA
switch fluorescence ratio: 0.967 ± 0.022

GGGGAGAAAG
switch fluorescence ratio: 0.9964 ± 0.0029

TAGTCATTAC
switch fluorescence ratio: 1.12 ± 0.12

AGGTGTGGGT
switch fluorescence ratio: 1.01 ± 0.037

TTGTTTGTT
switch fluorescence ratio: 0.994 ± 0.019

GGTGGCATTT
switch fluorescence ratio: 1.08 ± 0.011

GGTGTTACTG
switch fluorescence ratio: 1.03 ± 0.048

TTTGAATAAG
switch fluorescence ratio: 0.995 ± 0.023

GGGATTGGAG
switch fluorescence ratio: 0.995 ± 0.016

TCGTAACTGT
switch fluorescence ratio: 1.03 ± 0.016

TTGGCTAATA
switch fluorescence ratio: 1.01 ± 0.018

ACCCAAAAAG
switch fluorescence ratio: 1.05 ± 0.12

GTGTTAGCGA
switch fluorescence ratio: 0.997 ± 0.045

GTCTAATCAT
switch fluorescence ratio: 0.967 ± 0.019

TTCGCAGGGT
switch fluorescence ratio: 1.039 ± 0.0029

TTTAGGTAGG
switch fluorescence ratio: 1 ± 0.02

GATGGTGAAA
switch fluorescence ratio: 0.975 ± 0.039

TTAGAATGGG
switch fluorescence ratio: 1.12 ± 0.14

AGGTGAAAGT
switch fluorescence ratio: 0.983 ± 0.029

TTTTTCGGGT
switch fluorescence ratio: 0.974 ± 0.018

TTTCGGTTTT
switch fluorescence ratio: 1.04 ± 0.11

TACAATGCTT
switch fluorescence ratio: 1.02 ± 0.017

TATAGTTTGC
switch fluorescence ratio: 0.969 ± 0.026

GGGGTGACTG
switch fluorescence ratio: 1.05 ± 0.048

TGAGATTGTG
switch fluorescence ratio: 1.02 ± 0.037

TATACGCTTG
switch fluorescence ratio: 1.001 ± 0.0079

AATTTCAAGG
switch fluorescence ratio: 1 ± 0.048

CATTTTAGGG
switch fluorescence ratio: 0.988 ± 0.027

ATGTACGGGG
switch fluorescence ratio: 1.04 ± 0.028

GGTATAGGAT
switch fluorescence ratio: 0.991 ± 0.025

TGGATTAGTT
switch fluorescence ratio: 0.96734 ± 0.00041

CCTATATTAA
switch fluorescence ratio: 0.9853 ± 0.0066

TTATTGACAT
switch fluorescence ratio: 0.995 ± 0.021

AGGGTCGGGA
switch fluorescence ratio: 0.9838 ± 0.0013

GCATTGTGTA
switch fluorescence ratio: 0.9995 ± 0.003

TGGGGGTTG
switch fluorescence ratio: 1 ± 0.032

CGGTGACTTG
switch fluorescence ratio: 1.01 ± 0.017

ATGTTTACTG
switch fluorescence ratio: 1.033 ± 0.0082

ACACACTCAA
switch fluorescence ratio: 1.28 ± 0.029

CTTGGGGGCC
switch fluorescence ratio: 0.986 ± 0.012

CAACCGTTTC
switch fluorescence ratio: 1.27 ± 0.028

CTTCGCTCGA
switch fluorescence ratio: 1.35 ± 0.07

TTTAGTTAAG
switch fluorescence ratio: 0.945 ± 0.038

TAGGAGAAGG
switch fluorescence ratio: 1.04 ± 0.036

GGAATGACGG
switch fluorescence ratio: 1.012 ± 0.0024

TGGTTCATGT
switch fluorescence ratio: 0.9939 ± 0.008

TTTTATACG
switch fluorescence ratio: 1.36 ± 0.51

TAGGTGGGTT
switch fluorescence ratio: 0.982 ± 0.041

TTTTCAACGG
switch fluorescence ratio: 1.01 ± 0.0017

TGTGAGGGA
switch fluorescence ratio: 1 ± 0.029

ATAGGAGGTC
switch fluorescence ratio: 1.01 ± 0.013

AGTGTCTGGG
switch fluorescence ratio: 0.992 ± 0.022

TGATTGCCCT
switch fluorescence ratio: 0.9925 ± 0.0044

ATTAAGGGTT
switch fluorescence ratio: 1.02 ± 0.025

GGGGCACGGG
switch fluorescence ratio: 1.02 ± 0.034

TGTTTAGGGT
switch fluorescence ratio: 0.997 ± 0.029

AAATGCAGGG
switch fluorescence ratio: 1.01 ± 0.055

TGCCGCTTAA
switch fluorescence ratio: 1.193 ± 0.0089

TTATTATTAC
switch fluorescence ratio: 1.04 ± 0.062

TACGCCTGGT
switch fluorescence ratio: 1.034 ± 0.0071

TTAATGGGTT
switch fluorescence ratio: 1.09 ± 0.14

GGCCGTAGCG
switch fluorescence ratio: 0.986 ± 0.025

CAGTGCGGCA
switch fluorescence ratio: 1.038 ± 0.0027

GAGCGCGGCG
switch fluorescence ratio: 0.977 ± 0.048

TCTGGTTGTG
switch fluorescence ratio: 1.01 ± 0.016

CTGTAGTCGG
switch fluorescence ratio: 1.02 ± 0.03

GGGGGAATAC
switch fluorescence ratio: 2.26 ± 0.5

TGTACTGGGC
switch fluorescence ratio: 1.06 ± 0.049

AAGTTTTCTC
switch fluorescence ratio: 0.951 ± 0.0028

CGTCGTGACA
switch fluorescence ratio: 1.03 ± 0.029

GGGCTTGCAG
switch fluorescence ratio: 0.9812 ± 0.0089

GAAGCGTTGG
switch fluorescence ratio: 1.02 ± 0.0032

TTTACCGGTT
switch fluorescence ratio: 0.974 ± 0.07

TACTGTCTTG
switch fluorescence ratio: 0.97 ± 0.014

GCTAAAAGGA
switch fluorescence ratio: 0.975 ± 0.021

GAGAGGGGGC
switch fluorescence ratio: 0.931 ± 0.018

CGAACTGAAG
switch fluorescence ratio: 0.975 ± 0.026

AATTGCACCT
switch fluorescence ratio: 1.22 ± 0.05

GGTCATATAG
switch fluorescence ratio: 1.032 ± 0.0012

TTTGGGACTC
switch fluorescence ratio: 0.9731 ± 0.0023

AATGGTTTTG
switch fluorescence ratio: 0.9921 ± 0.0034

AGGGGCATGG
switch fluorescence ratio: 0.998 ± 0.04

TTAGTGATGT
switch fluorescence ratio: 1.03 ± 0.0097

CAGGCATGCG
switch fluorescence ratio: 1.01 ± 0.037

TTGATTGGCA
switch fluorescence ratio: 0.993 ± 0.025

TTTTGGCTAT
switch fluorescence ratio: 1.017 ± 0.0015

ACAGGACAGG
switch fluorescence ratio: 1.14 ± 0.014

TTTGTGGTTA
switch fluorescence ratio: 1.04 ± 0.056

ATTTACCCTG
switch fluorescence ratio: 1.08 ± 0.022

AATAGCAGGC
switch fluorescence ratio: 1.06 ± 0.028

GGACAGGCGC
switch fluorescence ratio: 1.006 ± 0.0024

TTAGTTATTA
switch fluorescence ratio: 1.017 ± 0.0041

CTCTCCTTGT
switch fluorescence ratio: 1.3 ± 0.38

TTAAGTTTTC
switch fluorescence ratio: 0.979 ± 0.015

GGACGGGTGT
switch fluorescence ratio: 0.996 ± 0.011

GGATGGTTCA
switch fluorescence ratio: 1.05 ± 0.072

CGCGGTCATA
switch fluorescence ratio: 1.023 ± 0.01

ACCCAGGTA
switch fluorescence ratio: 2.1 ± 0.29

TTCGCTTAGG
switch fluorescence ratio: 0.993 ± 0.026

GTTTTAGCGC
switch fluorescence ratio: 1 ± 0.049

AGTCAATGAC
switch fluorescence ratio: 0.968 ± 0.012

TTAGCATGAT
switch fluorescence ratio: 1.14 ± 0.2

GTTTGGAGAA
switch fluorescence ratio: 1.01 ± 0.034

AGGATTGTTG
switch fluorescence ratio: 0.994 ± 0.07

CCACAGCCGG
switch fluorescence ratio: 1.23 ± 0.13

AGATGGTTGC
switch fluorescence ratio: 0.958 ± 0.021

GGTAAACAAA
switch fluorescence ratio: 1.026 ± 0.0079

AACTTAAGGG
switch fluorescence ratio: 1.003 ± 0.0092

TGTTTTTATT
switch fluorescence ratio: 1.015 ± 0.0047

TGTCGTGGGA
switch fluorescence ratio: 1.01 ± 0.038

TTGCCTTCCG
switch fluorescence ratio: 2.17 ± 0.27

GTGGATAAAA
switch fluorescence ratio: 0.972 ± 0.029

TATTAGGGTC
switch fluorescence ratio: 1.02 ± 0.02

GTCTCTTCAT
switch fluorescence ratio: 0.986 ± 0.026

ATCTTATGTT
switch fluorescence ratio: 0.987 ± 0.025

GAGGGGGTCG
switch fluorescence ratio: 1.02 ± 0.079

AAATGCACAC
switch fluorescence ratio: 1.107 ± 0.0021

GGGCAAATTC
switch fluorescence ratio: 1.08 ± 0.02

CATGCAGATA
switch fluorescence ratio: 1.006 ± 0.0094

GAAATGAGGG
switch fluorescence ratio: 0.977 ± 0.047

GCTTATGTTC
switch fluorescence ratio: 1.015 ± 0.0097

AGAGTTTGT
switch fluorescence ratio: 0.987 ± 0.014

TTGGCACGTG
switch fluorescence ratio: 0.985 ± 0.061

GGTTGGGCTT
switch fluorescence ratio: 0.979 ± 0.012

TTATCTAGGG
switch fluorescence ratio: 0.997 ± 0.041

CGGGCCGAGG
switch fluorescence ratio: 1.02 ± 0.018

GGAATGTGCA
switch fluorescence ratio: 0.987 ± 0.023

TGAATTGCAT
switch fluorescence ratio: 0.96601 ± 0.00064

GGTACACACA
switch fluorescence ratio: 1.26 ± 0.061

TTATACTGGG
switch fluorescence ratio: 0.992 ± 0.012

TTCGGCAGTA
switch fluorescence ratio: 1 ± 0.025

ACCCTAGTTG
switch fluorescence ratio: 1.148 ± 0.0094

TTGAGATGTT
switch fluorescence ratio: 1.01 ± 0.025

TATCTGGGCC
switch fluorescence ratio: 1.03 ± 0.011

TTTGGTTCGA
switch fluorescence ratio: 0.977 ± 0.012

GGAATATAAC
switch fluorescence ratio: 1 ± 0.045

AAAGTGGTTA
switch fluorescence ratio: 1.01 ± 0.025

TAAAAGGACG
switch fluorescence ratio: 1.09 ± 0.024

GGTCTTAGTG
switch fluorescence ratio: 0.982 ± 0.017

TAATTACGGA
switch fluorescence ratio: 1.06 ± 0.026

TTTTTGGCAC
switch fluorescence ratio: 0.982 ± 0.029

TAGTATAGTT
switch fluorescence ratio: 0.98 ± 0.016

AACAGCAGGC
switch fluorescence ratio: 1.16 ± 0.013

ACGCCCGGGT
switch fluorescence ratio: 1.08 ± 0.051

TGGATGAGGG
switch fluorescence ratio: 0.99 ± 0.03

GGGCCACGTA
switch fluorescence ratio: 0.971 ± 0.082

GGCGGGGGTT
switch fluorescence ratio: 1.03 ± 0.017

CGATAGGTAG
switch fluorescence ratio: 0.994 ± 0.018

TTTCACAGCG
switch fluorescence ratio: 1.01 ± 0.011

TTATAGGCGT
switch fluorescence ratio: 1 ± 0.02

ACGGTCTCGG
switch fluorescence ratio: 1.01 ± 0.025

GGGGTGTTTT
switch fluorescence ratio: 0.999 ± 0.048

ATGGTAGATA
switch fluorescence ratio: 1.02 ± 0.0041

CGGTTATTGG
switch fluorescence ratio: 0.958 ± 0.041

CTAGGGTGTG
switch fluorescence ratio: 0.988 ± 0.034

TGACCGAGCG
switch fluorescence ratio: 0.9603 ± 0.0065

CTGTTACTGA
switch fluorescence ratio: 0.999 ± 0.041

TGGGACCGCG
switch fluorescence ratio: 1.03 ± 0.084

GCATTAAGGG
switch fluorescence ratio: 1.01 ± 0.039

AGGTATTGCT
switch fluorescence ratio: 0.9854 ± 0.0091

AAGGGTCGCA
switch fluorescence ratio: 1.03 ± 0.036

TGTAGCATGT
switch fluorescence ratio: 2.08 ± 1.3

TTAGGGGGTA
switch fluorescence ratio: 1.12 ± 0.27

TCGGCCCGTT
switch fluorescence ratio: 1.01 ± 0.018

TTACATCGGA
switch fluorescence ratio: 0.982 ± 0.03

TTGCTCGCCG
switch fluorescence ratio: 1.08 ± 0.035

TAAACCGGTA
switch fluorescence ratio: 1.03 ± 0.031

GTTTGGGTGA
switch fluorescence ratio: 1 ± 0.026

GAGATGGGGG
switch fluorescence ratio: 0.981 ± 0.038

TTATATATTT
switch fluorescence ratio: 0.993 ± 0.015

CGGGATGGGG
switch fluorescence ratio: 1 ± 0.041

ACGGGTAATG
switch fluorescence ratio: 1.01 ± 0.035

AAAACGTTTA
switch fluorescence ratio: 1.01 ± 0.043

TTTGGCTAGT
switch fluorescence ratio: 1.01 ± 0.019

AAGTTGCAGC
switch fluorescence ratio: 1 ± 0.025

TTGTTTGAGG
switch fluorescence ratio: 0.9815 ± 0.004

GGTTGAACAT
switch fluorescence ratio: 0.9661 ± 0.0027

ATTTGGGGTG
switch fluorescence ratio: 1.016 ± 0.0069

GACGTTTACA
switch fluorescence ratio: 1.17 ± 0.016

TGGGAGCAGC
switch fluorescence ratio: 1.02 ± 0.038

TTTAGGACAG
switch fluorescence ratio: 1.01 ± 0.011

CGTACTCCTT
switch fluorescence ratio: 1.12 ± 0.025

TTTTGGTCGA
switch fluorescence ratio: 1.03 ± 0.022

ATCATTGCTG
switch fluorescence ratio: 0.949 ± 0.056

CGGTGAATCT
switch fluorescence ratio: 1.01 ± 0.03

TTAGTATGGA
switch fluorescence ratio: 0.9837 ± 0.0013

TGTGGTTATT
switch fluorescence ratio: 0.991 ± 0.025

TAACTGACGG
switch fluorescence ratio: 1.268 ± 0.012

TGCCGAGTGC
switch fluorescence ratio: 1.046 ± 0.0083

TATTTCATGT
switch fluorescence ratio: 1.02 ± 0.044

GTTACCAGGT
switch fluorescence ratio: 1.16 ± 0.097

CGAGGCATTA
switch fluorescence ratio: 4.8 ± 1.4

TATGTTACCT
switch fluorescence ratio: 1.22 ± 0.05

TGGGGAGTTA
switch fluorescence ratio: 0.992 ± 0.021

TATGGCAAGG
switch fluorescence ratio: 1.03 ± 0.051

GGCGCTTGGG
switch fluorescence ratio: 0.986 ± 0.022

GTTGTGGTTG
switch fluorescence ratio: 0.987 ± 0.035
